Source: patent publication US20230056252A1 (Gilead, published 2023)
Substitutions are numbered along the chain they refer to.

B1: huSP34.12.9 Fab-HF (Fab, V domains shown)
VH: EVQLVESGGGLVQPGGSLRLSCAASGFTFSTYAMNWVRQAPGKGLEWVARIRSKYNNYATYYAASVKGRFTISRDDSKNSLYLQMNSLRTEDTAVYYCVRHGNFGHSYVSWFAYWGQGTLVTVSS
VL: QAVVTQPPSLTVSPGGTVTLTCGSSTGAVTTGHYANWVQQKPGQAPRGLIGGTNKRAPGVPARFSGSLSGGKAALTISGAQPEDEAEYYCALWYSNLWVFGGGTKLTVL
notes: also called HC12+LC9
B2: huSP34.11.8 Fab-HF (Fab, V domains shown)
VH: B1 VH with A49G
VL: B1 VL with P7E, S69L, L97R
notes: also called HC11+LC8
B3: huSP34.35.15 Fab-HF (Fab, V domains shown)
VH: B1 VH with S30N, T31D, A49G, I51T, R89K, V95M
VL: B1 VL with N96A, L97R
notes: also called HC35+LC15
B4: huSP34.34.6 Fab-HF (Fab, V domains shown)
VH: B1 VH with S30N, A49G, R89K, V95M
VL: B1 VL with N54S, K55N, N96A, L97R
notes: also called HC34+LC6
B5: huSP34.35.6 Fab-HF (Fab, V domains shown)
VH: B1 VH with S30N, T31D, A49G, I51T, R89K, V95M
VL: B1 VL with N54S, K55N, N96A, L97R
notes: also called HC35+LC6
B6: huSP34.35.12 Fab-H (Fab, V domains shown)
VH: B1 VH with S30N, T31D, A49G, I51T, R89K, V95M
VL: B1 VL with G59W, V60T, L97R
notes: also called HC35+LC12
B7: huSP34.34.11 Fab-HF (Fab, V domains shown)
VH: B1 VH with S30N, A49G, R89K, V95M
VL: B1 VL with P7E, S69L, I77L
notes: also called HC34+LC11
B8: huSP34.34.17 Fab-HF (Fab, V domains shown)
VH: B1 VH with S30N, A49G, R89K, V95M
VL: B1 VL with G59W, V60T, N96A, L97R
notes: also called HC34+LC17
B9: huSP34.34.12 Fab-HF (Fab, V domains shown)
VH: B1 VH with S30N, A49G, R89K, V95M
VL: B1 VL with G59W, V60T, L97R
notes: also called HC34+LC12
B10: huSP34.34.18 Fab-H (Fab, V domains shown)
VH: B1 VH with S30N, A49G, R89K, V95M
VL: B1 VL with N54S, K55N, G59W, V60T, N96A, L97R
notes: also called HC34+LC18
B11: huSP34.34.16 Fab-HF (Fab, V domains shown)
VH: B1 VH with S30N, A49G, R89K, V95M
VL: B1 VL with N54S, K55N, G59W, V60T, L97R
notes: also called HC34+LC16
B12: huSP34.36.10 Fab-HF (Fab, V domains shown)
VH: B1 VH with S30N, T31D, A49G, R89K, V95M
VL: B1 VL with L97R
notes: also called HC36+LC10
B13: huSP34.34.14 Fab-HF (Fab, V domains shown)
VH: B1 VH with S30N, A49G, R89K, V95M
VL: B1 VL with N54S, K55N, L97R
notes: also called HC34+LC14
B14: huSP34.35.10 Fab-HF (Fab, V domains shown)
VH: B1 VH with S30N, T31D, A49G, I51T, R89K, V95M
VL: B1 VL with L97R
notes: also called HC35+LC10
B15: huSP34.34.15 Fab-HF (Fab, V domains shown)
VH: B1 VH with S30N, A49G, R89K, V95M
VL: B1 VL with N96A, L97R
notes: also called HC34+LC15
B16: huSP34.34.10 Fab-HF (Fab, V domains shown)
VH: B1 VH with S30N, A49G, R89K, V95M
VL: B1 VL with L97R
notes: also called HC34+LC10
B17: huSP34.3.13 Fab-HF (Fab, V domains shown)
VH: B1 VH with S30N, A49G, A64D
VL: B1 VL with P7E, N54S, K55N, S69L, L97R
notes: also called HC3+LC13
B18: huSP34.3.19 Fab-HF (Fab, V domains shown)
VH: B1 VH with S30N, A49G, A64D
VL: B1 VL with P7E, S69L, N96A, L97R
notes: also called HC3+LC19
B19: huSP34.37.10 Fab-HF (Fab, V domains shown)
VH: B1 VH with S30N, A49G, I51T, R89K, V95M
VL: B1 VL with L97R
notes: also called HC37+LC10

target: T1, biotinylated CD3 epsilon:delta heterodimer protein (Amsbio AMS.CDD-H52WO) (Homo sapiens (Human), UniProt P07766 23-126; P04234 22-105); assay: BLI (Octet), CD3 on SA sensor, Fab analyte
T1 construct: also called CD3 heterodimer
Experimental: (§1) The CD3 binding kinetics of the purified huSP34 Fabs were determined using OctetRed384 (Pall ForteBio, CA) biolayer interferometry (BLI). […] Streptavidin (SA) coated biosensors tips (Pall ForteBio, CA) were used to capture biotinylated CD3 epsilon: delta heterodimer and typical immobilization levels captured on the SA sensors were 1 nm which approximately translates to 300 ng/ml of captured protein. For kinetic measurements biosensors were first pre-wetted with assay buffer for 10 minutes to remove protective sucrose coating followed by the recommended regeneration conditions for standardization of the biosensor surface for the experiment. In order to load the biosensors with antigen, 300 ng/ml of biotinylated CD3 epsilon: delta heterodimer protein (Amsbio AMS.CDD-H52WO) was immobilized on the SA sensor for 900 seconds. The CD3 loaded biosensors were then blocked with 20 ug/ml biocytin (sigma) for 200 seconds and then dipped into assay buffer containing wells for 200 seconds to remove any non-specific protein or unbound CD3 heterodimer.
(§2) CD3 loaded and biocytin blocked biosensors were then transferred into fresh assay buffer for 200 seconds to collect a baseline read. Kinetic measurements for anti-CD3 Fab and bispecific antibody binding were performed by dipping the CD3-coated biosensors into wells containing multiple concentrations of Fab or Ab (0-300 nM) for 100 seconds followed by a 300 second dissociation time by transferring the biosensors into assay buffer containing wells. The CD3 loaded sensors were then regenerated for the next kinetic measurement. Biosensors were generated by removing bound Fabs or Ab from immobilized CD3 on SA biosensors. Regeneration conditions used consisted of 3 cycles of 5 seconds of dipping the biosensors in Regeneration Buffer (10 mM Glycine HCl pH 1.5) followed by Assay Buffer (10 mM sodium phosphate pH 7.4, 140 mM Sodium Chloride, 0.005% Tween20 with 0.2% BSA).

| Binder | Kd [nM] | koff [s⁻¹] | kon [M⁻¹ s⁻¹] |
| --- | --- | --- | --- |
| B1 | 3.2 | 0.00335 | 1.04e+06 |
| B2 | 2.8 | 0.00165 | 610000 |

target: T1, biotinylated CD3 epsilon:delta …; assay: BLI (Octet), CD3 on SA sensor, Fab analyte; remark: another data set of the same source
Experimental: as §1, §2

| Binder | Kd [nM] | koff [s⁻¹] | kon [M⁻¹ s⁻¹] |
| --- | --- | --- | --- |
| B3 | 303 | 0.17 | 560000 |
| B4 | 8 | 0.00357 | 449000 |
| B5 | 178 | 0.187 | 1.55e+06 |
| B6 | 125 | 0.103 | 2.08e+06 |
| B7 | 10.8 | 0.00118 | 143000 |
| B8 | 29.9 | 0.00816 | 273000 |
| B9 | 8.1 | 0.0014 | 189000 |
| B10 | 87.1 | 0.0224 | 257000 |
| B11 | 28.8 | 0.00599 | 208000 |
| B12 | 5.8 | 0.00929 | 1.6e+06 |
| B13 | 3.9 | 0.00126 | 345000 |
| B14 | 224 | 0.0759 | 339000 |
| B15 | 14.7 | 0.0015 | 109000 |
| B16 | 4 | 0.000303 | 155000 |
| B17 | 6.2 | 0.00129 | 218000 |
| B18 | 9.9 | 0.00164 | 193000 |
| B19 | 16.1 | 0.00267 | 171000 |
